Assay results from patent publication US20150329626A1.

How the values were obtained:
[1] = molecular target: human Ang2 (human) (UniProt O15123); experiment: competition ELISA: blocking of biotinylated human Ang2 binding to plate-coated human Tie2-Fc
[2] = molecular target: rabbit Ang2 (rabbit) (UniProt G1T9B3); experiment: Biacore SPR, 37 C, n = 3, antibody captured on Protein A
[3] = molecular target: mouse Ang2 (mouse) (UniProt O35608); experiment: as above
[4] = molecular target: dog Ang2 (dog); experiment: as above
[5] = molecular target: human Ang2 (human) (UniProt O15123); experiment: as above
[6] = molecular target: cyno Ang2 (cynomolgus monkey); experiment: as above
[7] = molecular target: human Ang2 (human) (UniProt O15123); experiment: cell-based or functional assay

Sequence of mouse Ang2 (mouse) (O35608 19-496 limits assumed): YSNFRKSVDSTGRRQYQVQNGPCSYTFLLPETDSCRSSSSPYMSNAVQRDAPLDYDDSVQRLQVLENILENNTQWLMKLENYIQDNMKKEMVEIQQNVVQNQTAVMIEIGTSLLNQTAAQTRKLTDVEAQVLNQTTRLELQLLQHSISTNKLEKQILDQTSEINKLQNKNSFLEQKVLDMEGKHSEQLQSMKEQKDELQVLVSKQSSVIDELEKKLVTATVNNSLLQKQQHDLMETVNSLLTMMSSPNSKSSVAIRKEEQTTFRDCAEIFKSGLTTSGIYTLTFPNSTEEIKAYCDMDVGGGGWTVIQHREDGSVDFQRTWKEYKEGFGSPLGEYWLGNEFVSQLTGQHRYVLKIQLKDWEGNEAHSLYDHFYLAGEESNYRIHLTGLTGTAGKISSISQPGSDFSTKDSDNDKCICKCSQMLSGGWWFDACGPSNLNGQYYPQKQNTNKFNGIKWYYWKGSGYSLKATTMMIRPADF
Sequence of rabbit Ang2 (rabbit) (G1T9B3 entry or part of it): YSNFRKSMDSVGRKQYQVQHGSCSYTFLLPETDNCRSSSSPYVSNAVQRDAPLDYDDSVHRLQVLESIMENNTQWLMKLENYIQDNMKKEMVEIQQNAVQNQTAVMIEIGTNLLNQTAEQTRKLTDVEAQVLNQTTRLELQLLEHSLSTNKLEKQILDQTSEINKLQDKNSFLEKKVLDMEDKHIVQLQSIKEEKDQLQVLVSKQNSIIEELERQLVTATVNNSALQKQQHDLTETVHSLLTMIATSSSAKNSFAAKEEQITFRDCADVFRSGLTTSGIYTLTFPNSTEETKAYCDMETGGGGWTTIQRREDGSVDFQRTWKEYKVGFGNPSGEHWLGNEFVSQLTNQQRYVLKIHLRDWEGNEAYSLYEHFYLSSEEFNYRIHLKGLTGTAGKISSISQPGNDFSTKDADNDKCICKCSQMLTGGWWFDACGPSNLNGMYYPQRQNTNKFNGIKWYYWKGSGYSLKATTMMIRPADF
Sequence of human Ang2 (human) (O15123 19-496 limits assumed): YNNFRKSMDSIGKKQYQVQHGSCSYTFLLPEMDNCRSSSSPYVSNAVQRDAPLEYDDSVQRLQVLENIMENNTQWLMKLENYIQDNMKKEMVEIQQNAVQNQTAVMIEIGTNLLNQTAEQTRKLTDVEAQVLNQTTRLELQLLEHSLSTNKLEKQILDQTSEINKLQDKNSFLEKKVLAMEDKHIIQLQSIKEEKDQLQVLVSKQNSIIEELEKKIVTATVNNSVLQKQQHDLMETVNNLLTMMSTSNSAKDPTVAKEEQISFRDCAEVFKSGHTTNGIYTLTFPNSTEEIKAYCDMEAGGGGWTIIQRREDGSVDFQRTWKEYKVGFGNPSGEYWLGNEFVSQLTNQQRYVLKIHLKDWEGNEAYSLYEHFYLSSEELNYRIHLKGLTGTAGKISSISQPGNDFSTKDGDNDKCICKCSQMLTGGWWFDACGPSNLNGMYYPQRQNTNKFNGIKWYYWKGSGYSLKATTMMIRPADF
Sequence of dog Ang2 (dog) (A0A8J8 19-495 limits assumed): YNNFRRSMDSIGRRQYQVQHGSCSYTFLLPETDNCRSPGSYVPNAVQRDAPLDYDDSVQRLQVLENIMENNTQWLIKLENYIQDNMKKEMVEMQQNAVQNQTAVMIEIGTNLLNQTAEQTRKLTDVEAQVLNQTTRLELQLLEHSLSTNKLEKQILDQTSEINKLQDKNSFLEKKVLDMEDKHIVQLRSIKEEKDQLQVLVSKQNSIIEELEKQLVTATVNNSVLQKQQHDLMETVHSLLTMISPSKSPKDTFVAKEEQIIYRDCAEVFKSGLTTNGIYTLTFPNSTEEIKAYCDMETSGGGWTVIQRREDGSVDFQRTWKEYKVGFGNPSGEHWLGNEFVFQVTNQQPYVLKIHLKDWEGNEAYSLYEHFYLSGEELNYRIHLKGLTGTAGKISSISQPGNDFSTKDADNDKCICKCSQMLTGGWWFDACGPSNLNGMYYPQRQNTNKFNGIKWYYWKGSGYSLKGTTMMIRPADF

B1: Ang2 antibody with the same HCDRs and LCDRs as the scFv polypeptide portion of Compound F (antibody, V domains shown)
VH: QVQLVQSGAEVKKPGSSVKVSCKASGYSFTDYNMVWVRQAPGQCLEWMGYIDPYNGGTGYNQKFEGRVTITADESTSTAYMELSSLRSEDTAVYYCARTRDRYDVWYFDVWGQGTLVTVSS
VL: DIVMTQSPDSLAVSLGERATINCKASQDVYIAVAWYQQKPGQPPKLLIYWASTRDTGVPDRFSGSGSGTDFTLTISSLQAEDVAVYYCHQYSSYPPTFGCGTKVEIK
modifications: CDRs only; frameworks, constant regions missing
- IC50 [1]: 0.027 nM
- Kd [2]: 0.21 nM
- koff [2]: 0.00015 s⁻¹
- kon [2]: 730000 M⁻¹ s⁻¹
- Kd [3]: 0.109 nM
- koff [3]: 0.00011 s⁻¹
- kon [3]: 1e+06 M⁻¹ s⁻¹
- Kd [4]: 0.14 nM
- koff [4]: 0.00011 s⁻¹
- kon [4]: 790000 M⁻¹ s⁻¹
- Kd [5]: 0.08 nM
- koff [5]: 7e-05 s⁻¹
- kon [5]: 1e+06 M⁻¹ s⁻¹
- Kd [6]: 0.107 nM
- koff [6]: 0.00029 s⁻¹
- kon [6]: 2.7e+06 M⁻¹ s⁻¹
- inhibition of human Ang2 induced phospho-Tie2 in CHO-Tie2 cells (IC50) [7]: 0.773 nM
